The text below walks through data of paper PMC11557873 (Nature Communications, 2024).

This assay concerns the target T1, hgp130.hFc (human gp130 aa E23-E619 with a hFc tag) (human, UniProt P40189 23-619).
T1 sequence: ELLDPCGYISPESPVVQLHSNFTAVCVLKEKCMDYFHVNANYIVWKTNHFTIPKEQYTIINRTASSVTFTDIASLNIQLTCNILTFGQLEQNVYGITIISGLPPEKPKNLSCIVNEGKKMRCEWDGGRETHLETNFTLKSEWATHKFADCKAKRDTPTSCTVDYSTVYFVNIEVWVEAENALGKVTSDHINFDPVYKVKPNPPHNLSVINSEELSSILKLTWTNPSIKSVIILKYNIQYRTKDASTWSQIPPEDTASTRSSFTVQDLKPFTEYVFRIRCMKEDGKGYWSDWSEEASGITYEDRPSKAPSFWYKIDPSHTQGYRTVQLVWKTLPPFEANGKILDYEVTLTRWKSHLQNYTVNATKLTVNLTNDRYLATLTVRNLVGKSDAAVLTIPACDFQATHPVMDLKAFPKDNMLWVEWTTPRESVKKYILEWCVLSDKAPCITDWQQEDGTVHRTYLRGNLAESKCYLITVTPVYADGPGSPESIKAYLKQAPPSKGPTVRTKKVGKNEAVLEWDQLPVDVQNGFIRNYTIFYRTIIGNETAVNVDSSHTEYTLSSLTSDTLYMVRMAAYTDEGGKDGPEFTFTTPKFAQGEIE
Briefly: SPR.

Numbering of substitutions follows the chain as printed. Names and notes keep the numbering of the source.

B1: short form hOSM variant Δ(A26-E34)/C152S (aa Y35-R221) (ligand)
chain: YRVLLGQLQKQTDLMQDTSRLLDPYIRIQGLDVPKLREHCRERPGAFPSEETLRGLGRRGFLQTLNATLGCVLHRLADLEQRLPKAQDLERSGLNIEDLEKLQMARPNILGLRNNIYSMAQLLDNSDTAEPTKAGRGASQPPTPTPASDAFQRKLEGCRFLHGYHRFMHSVGRVFSKWGESPNRSRR
Take B1: binding was characterised by a dissociation constant (Kd) of 40.9 nM.

B2: short form hOSM WT (hOSM_short, aa A26-R221), C-terminal myc-myc-His (ligand)
chain: AAIGSCSKEYRVLLGQLQKQTDLMQDTSRLLDPYIRIQGLDVPKLREHCRERPGAFPSEETLRGLGRRGFLQTLNATLGCVLHRLADLEQRLPKAQDLERSGLNIEDLEKLQMARPNILGLRNNIYCMAQLLDNSDTAEPTKAGRGASQPPTPTPASDAFQRKLEGCRFLHGYHRFMHSVGRVFSKWGESPNRSRR
B2: the affinity, expressed as Kd, was 8.58 nM.

B3: short form hOSM mutant V37R (ligand)
chain: B2 chain with V12R
Regarding B3, the binding result is on record as “binds”.

B4: short form hOSM variant C31S/C152S (ligand)
chain: B2 chain with C6S, C127S
For the molecule B4, the affinity, expressed as Kd, was 69 nM.
